The source of these data is publication doi:10.1101/2024.11.15.623645 (bioRxiv, 2024).

Some results are limits rather than exact numbers.

Assay in all cases: SPR
On the technique in general: In SPR one partner is held on a chip, and binding of the other changes the refractive index at the surface.

The target in assay [1] is 2G12 IgG BCR complex (membrane IgG with Igα/Igβ) (human | human (endogenous in Ramos)) (UniProt P11912).
For assay [2], the target named is 2G12 IgM BCR complex (membrane IgM with Igα/Igβ) (human | human (endogenous in Ramos)) (UniProt P11912).
The target in assay [3] is HIV-1 Env gp140 trimer CH505TF v4.1 (non-biotinylated) (HIV-1 clade C, CH505 transmitted/founder, UniProt M4M3Q1, stabilised).

As to “HIV-1 Env gp140 trimer CH848 (non-biotinylated)”, the on-rate (kon) in assay [1] and in assay [2] was greater than 100000 M⁻¹ s⁻¹ throughout.
With “HIV-1 Env gp140 trimer CAP256 (non-biotinylated)”, the kon in assay [1] and in assay [2] was greater than 100000 M⁻¹ s⁻¹ in each case.
For the molecule “HIV-1 Env gp140 trimer CH505TF v4.1 (non-biotinylated)”, the kon in assay [1] and in assay [2] was greater than 100000 M⁻¹ s⁻¹ each time.
In the case of “HIV-1 Env gp140 trimer BG505 GT1.2 (non-biotinylated)”, the association rate constant (kon) in assay [1] and in assay [2] was greater than 100000 M⁻¹ s⁻¹ in each case.
Regarding “HIV-1 Env gp140 trimer JRFL (non-biotinylated)”, the kon in assay [1] and in assay [2] was greater than 100000 M⁻¹ s⁻¹ in each case.

B1: 2G12 soluble IgG mAb (antibody, V domains shown)
VH: EVQLVESGGGLVKAGGSLILSCGVSNFRISAHTMNWVRRVPGGGLEWVASISTSSTYRDYADAVKGRFTVSRDDLEDFVYLQMHKMRVEDTAIYYCARKGSDRLSDNDPFDAWGPGTVVTVSP
VL: DVVMTQSPSTLSASVGDTITITCRASQSIETWLAWYQQKPGKAPKLLIYKASTLKTGVPSRFSGSGSGTEFTLTISGLQFDDFATYHCQHYAGYSATFGQGTRVEIK
On to B1, for which the binding result in assay [3] is recorded as “binds”.

The term kon denotes the rate constant with which the complex forms. A low value points to slower complex formation.
